Values joined by “and” are separate entries in the source; they are usually repeats but may differ in a detail not shown here. Equal entries are not always repeated.
Experiments:
[1] = target: recombinant human CD38 extracellular domain (ECD) fused to a his-tag (human) (UniProt P28907); experiment: SPR
[2] = target: CD38 on CD38+ human cells (Daudi, Ramos, PBMCs) (human (endogenous in Daudi, Ramos and PBMCs)) (UniProt P28907); experiment: flow cytometry on cells
[3] = target: human CD38 on Chinese hamster ovary (CHO) cells stably transfected to express CD38 (human) (UniProt P28907); experiment: flow cytometry on cells
[4] = target: TNB-738, anti-CD38 biparatopic antibody (human (from transgenic UniRat) | human); experiment: BLI

Row | Kd [1] | EC50 [2] | EC50 [3] | Kd [4] | Substance
1 | 0.0001 to 0.0038 µM | 0.0397 µM and 0.0503 µM | 0.0702 µM | – | TNB-738, anti-CD38 biparatopic antibody (bispecific antibody)
2 | – | – | – | 0.00248 µM | recombinant human CD38 extracellular domain (ECD) fused to a his-tag (from UniProt P28907 43-300) (domain or fragment)
